Experimental findings from paper PMC3236213, “A Novel N-Acetylglutamate Synthase Architecture Revealed by the Crystal Structure of the Bifunctional Enzyme from Maricaulis maris” (PLoS ONE, 2011) are described below.

Assay [1] deals with T1, mmNAGS/K (Maricaulis maris, UniProt Q0ASS9).
T1 construct: gene Mmar10_0365; full length (AAK domain 1-290, linker Gly291, NAT domain 292-441); E. coli Rosetta 2; homotetramer
T1 sequence (Q0ASS9 1-441): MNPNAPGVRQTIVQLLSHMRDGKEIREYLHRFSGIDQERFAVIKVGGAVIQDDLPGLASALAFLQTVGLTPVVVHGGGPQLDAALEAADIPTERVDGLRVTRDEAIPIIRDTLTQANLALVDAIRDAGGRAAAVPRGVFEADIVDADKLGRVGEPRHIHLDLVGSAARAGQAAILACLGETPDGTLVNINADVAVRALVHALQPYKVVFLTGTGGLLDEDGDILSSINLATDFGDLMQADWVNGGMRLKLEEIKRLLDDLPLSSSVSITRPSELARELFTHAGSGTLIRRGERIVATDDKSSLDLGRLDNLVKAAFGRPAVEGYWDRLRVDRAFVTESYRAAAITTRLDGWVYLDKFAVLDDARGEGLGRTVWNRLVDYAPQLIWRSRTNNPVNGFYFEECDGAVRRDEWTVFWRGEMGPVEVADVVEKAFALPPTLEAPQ
Kind of assay: NAGS assay, NAG quantified by LC-MS. Format: biochemical. Particulars: allosteric inhibitor of NAGS activity, not of NAGK activity; 2.5 mM AcCoA, 10 mM L-glutamate, 50 mM Tris-HCl pH 8.5; 293 K in Methods, 310 K in Figure 1 legend.

The target in assay [2] is T1, mmNAGS/K. Kind of assay: X-ray crystallography (native, […] A). Format: binding. Particulars: modeled in residual density at NAT domain of subunits A and Y; 100 mM glutamate before crystallization; pH 6.5.
Assay [3] concerns the target Maricaulis maris bifunctional N-acetylglutamate synthase/kinase (mmNAGS/K), wild type (Maricaulis maris MCS10). Kind of assay: cross-linking; 0.15 ug protein with 0.25 ug dimethyl suberimidate in 50 ul of 200 mM triethanolamine pH 8.25, three hours at 298 K; SDS-PAGE (NuPAGE 4-12% Bis-Tris), Coomassie blue.
The target is the same in assay [4]. Kind of assay: crystal structure; trigonal form P3(1)21 of native mmNAGS/K, 4.3 A, two subunits per asymmetric unit, molecular replacement with the A-X dimer; 23% PEG400, 100 mM Bis-Tris pH 6.5, 1 mM 5-amino-2,4,6-triiodoisophthalic acid.
The target is the same in assay [5]. Kind of assay: crystal structure; orthorhombic form P2(1)2(1)2(1) of mmNAGS/K, four subunits per asymmetric unit; protein incubated beforehand with 25 mM CoA and 100 mM glutamate; native: 25% PEG3350, 200 mM NaCl, 100 mM Bis-Tris pH 6.5; Se-Met mutant: 25% PEG3350, 200 mM sodium malonate pH 7.0.
Assay [6] deals with Se-Met substituted mmNAGS/K triple mutant (I106M, I294M, L376M) (Maricaulis maris MCS10). The assay is described as above.
The target in assay [7] is Se-Met substituted xcNAGS/K (hexagonal crystal form) (Xanthomonas campestris). Kind of assay: crystal structure; hexagonal form P6(2)22 of Se-Met xcNAGS/K, one subunit per asymmetric unit, molecular replacement with mmNAGS/K; tetramer made by crystallographic symmetry.
For assay [8], the target named is Xanthomonas campestris bifunctional N-acetylglutamate synthase/kinase (xcNAGS/K), recombinant (Xanthomonas campestris). Kind of assay: cross-linking; 0.15 ug protein with 0.25 ug dimethyl suberimidate in 50 ul of 200 mM triethanolamine pH 8.25, three hours at 298 K; SDS-PAGE (NuPAGE 4-12% Bis-Tris), Coomassie blue.

For the compound `N=C(N)NCCC[C@H](N)C(=O)O` [L-arginine], the “fold inhibition of NAGS activity at 1.0 mM” value in assay [1] is reported as 14 fold.

As to `N[C@@H](CCC(=O)O)C(=O)O` [L-glutamate], in assay [2], the “X-ray crystallography (native, 3.1 A)” value is “residual electron density in subunits A and Y at this site that can be modeled as L-glutamate”.

For the compound “Maricaulis maris bifunctional N-acetylglutamate synthase/kinase (mmNAGS/K), wild type (enzyme)”, the stoichiometry N in assay [3], in assay [4] and in assay [5] was 4 in each case.

Turning to “Se-Met substituted mmNAGS/K triple mutant (I106M, I294M, L376M) (enzyme)”, the stoichiometry N (usually a count of units in the complex or per binding partner) in assay [6] worked out at 4.

On to “Se-Met substituted xcNAGS/K (hexagonal crystal form) (enzyme)”, for which, in assay [7], the stoichiometry N was 4.

For the compound “Xanthomonas campestris bifunctional N-acetylglutamate synthase/kinase (xcNAGS/K), recombinant (enzyme)”, the stoichiometry N in assay [8] is 4.
